± gives the uncertainty stated by the source.
Assay: self-splicing fitness, log relative to wild type (ln ratio); higher = more splicing; Tetrahymena group I intron in knt gene, E. coli kanamycin selection, DiMSum; sequences stand for … in CUCUCU…GGAGGGAAAAGUUAUCAGGCAUGCACCUGGUAGCUAGUCUUUAAACCAAUAGAUUGCAUCGGUUUAAAAGGCAAGACCGUCAAAUUGCGGGAAAGGGGUCAACAGCCGUUCAGUACCAAGUCUCAGGGGAAACUUUGAGAUGGCCUUGCAAAGGGUAUGGUAAUAAGCUGACGGACAUGGUCCUAACCACGCAGCCAAGUCCUAAGUCAACAGAUCUUCUGUUGAUAUGGAUGCAGUUCACAGACUAAAUGUCGGUCGGGGAAGAUGUAUUCUUCUCAUAAGAUAUAGUCGGACCUCUCCUUAAUGGGAGCUAGCGGAUGAAGUGAUGCAACACUGGAGCCGCUGGGAACUAAUUUGUAUGCGAAAGUAUAUUGAUUAGUUUUGGAGUACUCGUGGUCG
Outline: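 A randomised library covering all eight P1ex-region intron nucleotides was built with the intron in the knt kanamycin-resistance gene on pET-22b(+) and held in E. coli BL21(DE3). Cells were grown overnight at 37°C or 30°C on LB agar, with or without 25 μg/mL kanamycin, plus 100 μg/mL carbenicillin, 50 μM IPTG and 0.2% rhamnose, and pooled colonies were amplicon-sequenced on an Illumina HiSeq 2500. DiMSum fitness is the error-weighted combination of wild-type-normalised replicate fold changes, kanamycin versus none.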

| Sequence | self-splicing fitness (ln) (30 °C) | self-splicing fitness (ln) (37 °C) |
| --- | --- | --- |
| GAAUAGCAAUAUUACGGCAC | -0.0381 ± 0.12 | -0.000648 ± 0.15 |
| GAAUAGCAAUAUUACGGCCA | -0.596 ± 0.1 | -0.0233 ± 0.13 |
| GAAUAGCAAUAUUACGGGCU | -2.85 ± 0.16 | -1.19 ± 0.13 |
| GAAUAGCAAUAUUACGGGGG | -2.93 ± 0.26 | -1.87 ± 0.25 |
| GAAUAGCAAUAUUACGUACG | -1.38 ± 0.12 | -1.45 ± 0.14 |
| GAAUAGCAAUAUUACGUAUC | -1.7 ± 0.13 | -1.75 ± 0.2 |
| GAAUAGCAAUAUUACGUAUU | -2.18 ± 0.15 | -1.45 ± 0.14 |
| GAAUAGCAAUAUUACGUCAC | -2.47 ± 0.17 | -1.31 ± 0.17 |
| GAAUAGCAAUAUUACGUGAA | -1.74 ± 0.092 | -0.782 ± 0.11 |
| GAAUAGCAAUAUUACGUGAG | -1.19 ± 0.057 | -0.737 ± 0.1 |
| GACAAGCAAUAUUACGAACA | -1.52 ± 0.13 | -0.000414 ± 0.11 |
| GACAAGCAAUAUUACGAACU | -0.214 ± 0.066 | 0.284 ± 0.092 |
| GACAAGCAAUAUUACGACAC | -0.384 ± 0.071 | 0.0329 ± 0.11 |
| GACAAGCAAUAUUACGAUCU | -0.884 ± 0.079 | -0.309 ± 0.097 |
| GACAAGCAAUAUUACGCCAC |  | -2.64 ± 0.5 |
| GACAAGCAAUAUUACGCCCG | -1.26 ± 0.17 | -0.702 ± 0.37 |
| GACAAGCAAUAUUACGCUGA | -2.53 ± 0.13 | -1.55 ± 0.11 |
| GACAAGCAAUAUUACGCUUA | -1.52 ± 0.098 | -0.863 ± 0.1 |
| GACAAGCAAUAUUACGGACU | -1.17 ± 0.075 | 0.137 ± 0.087 |
| GACAAGCAAUAUUACGGAUA | -1.52 ± 0.12 | -1.47 ± 0.12 |
| GACAAGCAAUAUUACGGCAG | -4.14 ± 0.31 | -3.08 ± 0.35 |
| GACAAGCAAUAUUACGGCAU | -0.363 ± 0.067 | 0.227 ± 0.088 |
| GACAAGCAAUAUUACGGCUC | -0.105 ± 0.07 | 0.0794 ± 0.1 |
| GACAAGCAAUAUUACGGGAU | -2.65 ± 0.14 | -0.632 ± 0.12 |
| GACAAGCAAUAUUACGGGCA | -0.702 ± 0.049 | -0.0944 ± 0.056 |

| Sequence | self-splicing fitness (ln) (30 °C) | self-splicing fitness (ln) (37 °C) |
| --- | --- | --- |
| GACAAGCAAUAUUACGGGCG | -1.27 ± 0.061 | -0.455 ± 0.072 |
| GACAAGCAAUAUUACGUCUU | -2.08 ± 0.082 | -1.05 ± 0.085 |
| GACAAGCAAUAUUACGUGUC | -4.44 ± 0.28 | -3.22 ± 0.37 |
| GACAAGCAAUAUUACGUUCG | -2.99 ± 0.19 | -1.61 ± 0.12 |
| GACCAGCAAUAUUACGACUG | -2.86 ± 0.15 | -2.12 ± 0.17 |
| GACCAGCAAUAUUACGACUU | 0.432 ± 0.065 | 0.163 ± 0.076 |
| GACCAGCAAUAUUACGAUUA | -0.607 ± 0.056 | -0.446 ± 0.072 |
| GACCAGCAAUAUUACGCAAC | -1.35 ± 0.082 | -0.681 ± 0.1 |
| GACCAGCAAUAUUACGCCGU | -0.962 ± 0.075 | -0.0427 ± 0.08 |
| GACCAGCAAUAUUACGCGUG | -0.273 ± 0.041 | 0.216 ± 0.059 |
| GACCAGCAAUAUUACGCUGG | -3.16 ± 0.13 | -2.95 ± 0.21 |
| GACCAGCAAUAUUACGCUUG | -0.638 ± 0.089 | -0.56 ± 0.11 |
| GACCAGCAAUAUUACGGACU | -1.55 ± 0.082 | -0.595 ± 0.1 |
| GACCAGCAAUAUUACGGAGA | -1.25 ± 0.078 | -0.461 ± 0.088 |
| GACCAGCAAUAUUACGGAGC | -0.563 ± 0.077 | -0.0895 ± 0.11 |
| GACCAGCAAUAUUACGGAUG | -0.62 ± 0.056 | 0.157 ± 0.077 |
| GACCAGCAAUAUUACGGCUA | 0.142 ± 0.055 | 0.0036 ± 0.068 |
| GACCAGCAAUAUUACGGCUG | -3.68 ± 0.18 | -3.41 ± 0.25 |
| GACCAGCAAUAUUACGGGUC | -4.01 ± 0.21 | -3.33 ± 0.22 |
| GACCAGCAAUAUUACGUAAA | 0.0993 ± 0.067 | -0.108 ± 0.094 |
| GACCAGCAAUAUUACGUCGC | -1.89 ± 0.1 | -0.411 ± 0.13 |
| GACCAGCAAUAUUACGUGGG | -3.64 ± 0.12 | -2.47 ± 0.12 |
| GACCAGCAAUAUUACGUUCC | -2.31 ± 0.26 | -1.76 ± 0.28 |
| GACCAGCAAUAUUACGUUUG | -2.55 ± 0.073 | -1.42 ± 0.081 |
| GACGAGCAAUAUUACGAAAU | -2.5 ± 0.23 |  |

| Sequence | self-splicing fitness (ln) (30 °C) | self-splicing fitness (ln) (37 °C) |
| --- | --- | --- |
| GACGAGCAAUAUUACGAAUC |  | -2.14 ± 0.4 |
| GACGAGCAAUAUUACGAGAU | -2.23 ± 0.3 |  |
| GACGAGCAAUAUUACGAGCC | -2.73 ± 0.33 |  |
| GACGAGCAAUAUUACGAUGU | -3.94 ± 0.26 | -1.38 ± 0.14 |
| GACGAGCAAUAUUACGCCCU | -2.99 ± 0.25 | -1.47 ± 0.19 |
| GACGAGCAAUAUUACGCGUU | -3.74 ± 0.23 | -2.88 ± 0.25 |
| GACGAGCAAUAUUACGCUUA | -2.29 ± 0.15 | -1.13 ± 0.14 |
| GACGAGCAAUAUUACGGGAA | -3.41 ± 0.31 | -2.34 ± 0.19 |
| GACGAGCAAUAUUACGGGUC | -3.77 ± 0.21 | -3.28 ± 0.25 |
| GACGAGCAAUAUUACGUAGA | -2.81 ± 0.26 | -1.98 ± 0.22 |
| GACGAGCAAUAUUACGUAGU | -2.9 ± 0.26 | -1.88 ± 0.3 |
| GACGAGCAAUAUUACGUCAG |  | -1.66 ± 0.23 |
| GACGAGCAAUAUUACGUCGU | -3.59 ± 0.24 | -2.34 ± 0.23 |
| GACGAGCAAUAUUACGUCUC | -3.48 ± 0.36 | -1.23 ± 0.28 |
| GACGAGCAAUAUUACGUCUU | -2.63 ± 0.21 | -1.01 ± 0.17 |
| GACGAGCAAUAUUACGUGGA | -4 ± 0.21 | -2.92 ± 0.21 |
| GACGAGCAAUAUUACGUGGG | -4.32 ± 0.36 | -3.12 ± 0.2 |
| GACUAGCAAUAUUACGAAGU | -3.08 ± 0.17 | -1.82 ± 0.22 |
| GACUAGCAAUAUUACGAAUU | -1.35 ± 0.092 | -0.277 ± 0.11 |
| GACUAGCAAUAUUACGACAG | -2.92 ± 0.14 | -2.4 ± 0.2 |
| GACUAGCAAUAUUACGACUG | -1.64 ± 0.1 | 0.0415 ± 0.13 |
| GACUAGCAAUAUUACGAGAG | -3.75 ± 0.18 | -2.28 ± 0.14 |
| GACUAGCAAUAUUACGAGUC |  | -2.36 ± 0.39 |
| GACUAGCAAUAUUACGAUCA | -0.805 ± 0.062 | -0.314 ± 0.077 |
| GACUAGCAAUAUUACGAUGC | -0.221 ± 0.062 | 0.0502 ± 0.082 |

| Sequence | self-splicing fitness (ln) (30 °C) | self-splicing fitness (ln) (37 °C) |
| --- | --- | --- |
| GACUAGCAAUAUUACGCACC | -0.905 ± 0.18 | 0.000851 ± 0.28 |
| GACUAGCAAUAUUACGCAGA | -2.34 ± 0.16 | -1.62 ± 0.17 |
| GACUAGCAAUAUUACGCCUA | -0.114 ± 0.18 | -0.547 ± 0.15 |
| GACUAGCAAUAUUACGCGAA | -1.83 ± 0.18 | -0.638 ± 0.17 |
| GACUAGCAAUAUUACGCGAG | -2.49 ± 0.21 | -1.28 ± 0.15 |
| GACUAGCAAUAUUACGCGGU | -3.62 ± 0.17 | -3.27 ± 0.28 |
| GACUAGCAAUAUUACGCGUG | -1.44 ± 0.061 | -0.609 ± 0.067 |
| GACUAGCAAUAUUACGCUUA | -0.282 ± 0.17 | -0.7 ± 0.14 |
| GACUAGCAAUAUUACGGACG | -1.4 ± 0.21 | -1.85 ± 0.13 |
| GACUAGCAAUAUUACGGAGC | -1.58 ± 0.16 | -2.19 ± 0.2 |
| GACUAGCAAUAUUACGGAGG |  | -1.68 ± 0.4 |
| GACUAGCAAUAUUACGGAUG | -2.9 ± 0.11 | -1.29 ± 0.1 |
| GACUAGCAAUAUUACGGCAA | -0.738 ± 0.08 | -0.302 ± 0.09 |
| GACUAGCAAUAUUACGGCAG | -2.84 ± 0.14 | -2.49 ± 0.23 |
| GACUAGCAAUAUUACGGCGC | 0.0438 ± 0.14 | -0.0936 ± 0.17 |
| GACUAGCAAUAUUACGGGUC | -3.22 ± 0.19 | -2.71 ± 0.28 |
| GACUAGCAAUAUUACGGUGC | -2.65 ± 0.14 | -1.73 ± 0.16 |
| GACUAGCAAUAUUACGUAAC | -1.33 ± 0.073 | -0.875 ± 0.1 |
| GACUAGCAAUAUUACGUAGC | -2.47 ± 0.11 | -1.4 ± 0.1 |
| GACUAGCAAUAUUACGUCGU | -3.23 ± 0.18 | -1.47 ± 0.13 |
| GACUAGCAAUAUUACGUCUA | -2.89 ± 0.2 | -0.852 ± 0.12 |
| GACUAGCAAUAUUACGUGUA | -1.06 ± 0.067 | -0.258 ± 0.069 |
